Source: the supplement of paper PMC11246515
± gives the standard deviation of the averaged measurements.

Assay: total protein half-life in vivo (active degradation + dilution); higher = more stable protein
[1] = E. coli NCM3722 delta-clpP delta-lon delta-hslV, growth: N-lim chemostat, doubling time 6 h
[2] = E. coli NCM3722 delta-clpP, growth: N-lim chemostat, doubling time 6 h
[3] = E. coli NCM3722 delta-hslV, growth: N-lim chemostat, doubling time 6 h
[4] = E. coli NCM3722 delta-lon, growth: N-lim chemostat, doubling time 6 h
[5] = E. coli NCM3722 delta-smpB, growth: N-lim chemostat, doubling time 6 h
[6] = wild type E. coli NCM3722, growth: C-lim chemostat, doubling time 3 h
[7] = wild type E. coli NCM3722, growth: C-lim chemostat, doubling time 6 h
[8] = wild type E. coli NCM3722, growth: C-lim chemostat, doubling time 12 h
[9] = wild type E. coli NCM3722, growth: N-lim chemostat, doubling time 6 h
[10] = wild type E. coli NCM3722, growth: N-lim chemostat, doubling time 12 h
[11] = wild type E. coli NCM3722, growth: P-lim chemostat, doubling time 6 h
[12] = wild type E. coli NCM3722, growth: P-lim chemostat, doubling time 12 h

## MIKATDRKLVVGLEIGTAKVAALVGEVLPDGMVNIIGVGSCPSRGMDKGGVNDLESVVKCVQRAIDQAELMADCQISSVYLALSGKHISCQNEIGMVPISEEEVTQEDVENVVHTAKSVRVRDEHRVLHVIPQEYAIDYQEGIKNPVGLSGVRMQAKVHLITCHNDMAKNIVKAVERCGLKVDQLIFAGLASSYSVLTEDERELGVCVVDIGGGTMDIAVYTGGALRHTKVIPYAGNVVTSDIAYAFGTPPSDAEAIKVRHGCALGSIVGKDESVEVPSVGGRPPRSLQRQTLAEVIEPRYTELLNLVNEEILQLQEKLRQQGVKHHLAAGIVLTGGAAQIEGLAACAQRVFHTQVRIGAPLNITGLTDYAQEPYYSTAVGLLHYGKESHLNGEAEVEKRVTASVGSWIKRLNSWLRKEF [P0ABH0]
[1]
  total protein half-life in vivo: 6.03 ± 0.16 h
[2]
  total protein half-life in vivo: 6.41 ± 0.51 h
[3]
  total protein half-life in vivo: 6.33 ± 0.27 h
[4]
  total protein half-life in vivo: 6.06 ± 0.5 h
[5]
  total protein half-life in vivo: 5.42 ± 0.13 h
[6]
  total protein half-life in vivo: 3.04 ± 0.12 h
[7]
  total protein half-life in vivo: 5.738 ± 0.047 h
[8]
  total protein half-life in vivo: 10 ± 0.52 h
[9]
  total protein half-life in vivo: 5.48 ± 0.26 h
[10]
  total protein half-life in vivo: 10.8 ± 0.71 h
[11]
  total protein half-life in vivo: 5.868 ± 0.02 h
[12]
  total protein half-life in vivo: 11.3 ± 0.42 h

## MGKALVIVESPAKAKTINKYLGSDYVVKSSVGHIRDLPTSGSAAKKSADSTSTKTAKKPKKDERGALVNRMGVDPWHNWEAHYEVLPGKEKVVSELKQLAEKADHIYLATDLDREGEAIAWHLREVIGGDDARYSRVVFNEITKNAIRQAFNKPGELNIDRVNAQQARRFMDRVVGYMVSPLLWKKIARGLSAGRVQSVAVRLVVEREREIKAFVPEEFWEVDASTTTPSGEALALQVTHQNDKPFRPVNKEQTQAAVSLLEKARYSVLEREDKPTTSKPGAPFITSTLQQAASTRLGFGVKKTMMMAQRLYEAGYITYMRTDSTNLSQDAVNMVRGYISDNFGKKYLPESPNQYASKENSQEAHEAIRPSDVNVMAESLKDMEADAQKLYQLIWRQFVACQMTPAKYDSTTLTVGAGDFRLKARGRILRFDGWTKVMPALRKGDEDRILPAVNKGDALTLVELTPAQHFTKPPARFSEASLVKELEKRGIGRPSTYASIISTIQDRGYVRVENRRFYAEKMGEIVTDRLEENFRELMNYDFTAQMENSLDQVANHEAEWKAVLDHFFSDFTQQLDKAEKDPEEGGMRPNQMVLTSIDCPTCGRKMGIRTASTGVFLGCSGYALPPKERCKTTINLVPENEVLNVLEGEDAETNALRAKRRCPKCGTAMDSYLIDPKRKLHVCGNNPTCDGYEIEEGEFRIKGYDGPIVECEKCGSEMHLKMGRFGKYMACTNEECKNTRKILRNGEVAPPKEDPVPLPELPCEKSDAYFVLRDGAAGVFLAANTFPKSRETRAPLVEELYRFRDRLPEKLRYLADAPQQDPEGNKTMVRFSRKTKQQYVSSEKDGKATGWSAFYVDGKWVEGKK
[1]
  total protein half-life in vivo: 6.56 ± 0.22 h
[2]
  total protein half-life in vivo: 6.56 ± 0.69 h
[3]
  total protein half-life in vivo: 5.9165 ± 0.0035 h
[4]
  total protein half-life in vivo: 6.34 ± 0.074 h
[5]
  total protein half-life in vivo: 5.43 ± 0.18 h
[6]
  total protein half-life in vivo: 2.57 ± 0.091 h
[7]
  total protein half-life in vivo: 5.9591 ± 0.0017 h
[8]
  total protein half-life in vivo: 10.5 ± 0.44 h
[9]
  total protein half-life in vivo: 5.88 ± 0.34 h
[10]
  total protein half-life in vivo: 12.4 ± 0.35 h
[11]
  total protein half-life in vivo: 5.24 ± 0.54 h
[12]
  total protein half-life in vivo: 11.5 ± 0.38 h

## MHPMLNIAVRAARKAGNLIAKNYETPDAVEASQKGSNDFVTNVDKAAEAVIIDTIRKSYPQHTIITEESGELEGTDQDVQWVIDPLDGTTNFIKRLPHFAVSIAVRIKGRTEVAVVYDPMRNELFTATRGQGAQLNGYRLRGSTARDLDGTILATGFPFKAKQYATTYINIVGKLFNECADFRRTGSAALDLAYVAAGRVDGFFEIGLRPWDFAAGELLVREAGGIVSDFTGGHNYMLTGNIVAGNPRVVKAMLANMRDELSDALKR [P0ADG4]
[1]
  total protein half-life in vivo: 5.94 ± 0.37 h
[2]
  total protein half-life in vivo: 6.49 ± 1.6 h
[3]
  total protein half-life in vivo: 5.2 ± 0.23 h
[5]
  total protein half-life in vivo: 5.39 ± 0.47 h
[6]
  total protein half-life in vivo: 3.01 ± 0.21 h
[7]
  total protein half-life in vivo: 6.17 ± 0.55 h
[8]
  total protein half-life in vivo: 12 ± 0.71 h
[9]
  total protein half-life in vivo: 5.53 ± 0.19 h
[10]
  total protein half-life in vivo: 10.2 ± 0.39 h
[11]
  total protein half-life in vivo: 6.063 ± 0.06 h
[12]
  total protein half-life in vivo: 14 ± 1 h

## MMKMRWLSAAVMLTLYTSSSWAFSIDDVAKQAQSLAGKGYETPKSNLPSVFRDMKYADYQQIQFNHDKAYWNNLKTPFKLEFYHQGMYFDTPVKINEVTATAVKRIKYSPDYFTFGDVQHDKDTVKDLGFAGFKVLYPINSKDKNDEIVSMLGASYFRVIGAGQVYGLSARGLAIDTALPSGEEFPRFKEFWIERPKPTDKRLTIYALLDSPRATGAYKFVVMPGRDTVVDVQSKIYLRDKVGKLGVAPLTSMFLFGPNQPSPANNYRPELHDSNGLSIHAGNGEWIWRPLNNPKHLAVSSFSMENPQGFGLLQRGRDFSRFEDLDDRYDLRPSAWVTPKGEWGKGSVELVEIPTNDETNDNIVAYWTPDQLPEPGKEMNFKYTITFSRDEDKLHAPDNAWVQQTRRSTGDVKQSNLIRQPDGTIAFVVDFTGAEMKKLPEDTPVTAQTSIGDNGEIVESTVRYNPVTKGWRLVMRVKVKDAKKTTEMRAALVNADQTLSETWSYQLPANE
[1]
  total protein half-life in vivo: 6.373 ± 0.046 h
[3]
  total protein half-life in vivo: 6.94 ± 1 h
[4]
  total protein half-life in vivo: 6.34 ± 0.17 h
[5]
  total protein half-life in vivo: 5.91 ± 0.29 h
[6]
  total protein half-life in vivo: 3.25 ± 0.11 h
[7]
  total protein half-life in vivo: 6.12 ± 0.11 h
[8]
  total protein half-life in vivo: 12.4 ± 0.37 h
[9]
  total protein half-life in vivo: 6.43 ± 0.094 h
[10]
  total protein half-life in vivo: 12.6 ± 0.2 h
[11]
  total protein half-life in vivo: 6.37 ± 0.39 h
[12]
  total protein half-life in vivo: 12.9 ± 0.14 h

## MTNTWNRLALLIFAVLSLLVAGELQAGVVVGGTRFIFPADRESISILLTNTSQESWLINSKINRPTRWAGGEASTVPAPLLAAPPLILLKPGTTGTLRLLRTESDILPVDRETLFELSIASVPSGKVENQSVKVAMRSVFKLFWRPEGLPGDPLEAYQQLRWTRNSQGVQLTNPTPYYINLIQVSVNGKALSNVGVVPPKSQRQTSWCQAIAPCHVAWRAINDYGGLSAKKEQNLP
[6]
  total protein half-life in vivo: 2.87 h
[10]
  total protein half-life in vivo: 3.48 h
